From patent publication US20230140293A1

Key:
Assay in all cases: ELISA, gp120 on plate
CH505 M5 gp120 (HIV-1) = target: CH505 M5 gp120 (HIV-1)
[1] = target: CH505 w030.21 gp120 (HIV-1)
[2] = target: CH505 transmitted/founder (TF) gp120 (HIV-1)
[3] = target: CH505 w100.B6 gp120 (HIV-1)
[4] = target: CH505 w020.14 gp120 (HIV-1)
[5] = target: CH505 w053.31 gp120 (HIV-1)
[6] = target: CH505 w078.15 gp120 (HIV-1)
[7] = target: CH505 w078.33 gp120 (HIV-1)
[8] = target: CH505 w030.28 gp120 (HIV-1)
CH505 M11 gp120 (HIV-1) = target: CH505 M11 gp120 (HIV-1)
[9] = target: CH505 w053.16 gp120 (HIV-1)

Substance	log AUC (CH505 M5 gp120 (HIV-1)) [log AUC]	log AUC [1] [log AUC]	log AUC [2] [log AUC]	log AUC [3] [log AUC]	log AUC [4] [log AUC]	log AUC [5] [log AUC]	log AUC [6] [log AUC]	log AUC [7] [log AUC]	log AUC [8] [log AUC]	log AUC (CH505 M11 gp120 (HIV-1)) [log AUC]	log AUC [9] [log AUC]
CH105 (antibody)	8.6	10.6	11.2	11	10.4	13.5	10.1	8.9	9.1	11.7	9
CH106 (antibody)	8.4	10.9	11.3	11.8	11.2	13.4	11	9.5	11.7	12.8	9.8
